Non-standard residues stand in square brackets, D forms with d. No end group written: not given here. pS = N[C@@H](COP(=O)(O)O)C(=O)O
T1: human 6His-14-3-3ζ (human, UniProt P63104 1-245)
T1 sequence (looked up): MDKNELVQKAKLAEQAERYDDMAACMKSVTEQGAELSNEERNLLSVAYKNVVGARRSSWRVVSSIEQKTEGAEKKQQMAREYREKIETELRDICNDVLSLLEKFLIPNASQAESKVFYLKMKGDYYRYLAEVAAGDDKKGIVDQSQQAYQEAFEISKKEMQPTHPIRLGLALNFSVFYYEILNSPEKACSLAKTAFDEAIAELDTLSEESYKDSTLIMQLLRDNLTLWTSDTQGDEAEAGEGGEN


Experiments:
[1] = target: T1, human 6His-14-3-3ζ; test: pull-down
[2] = target: T1, human 6His-14-3-3ζ; test: ITC

Chain of SNAP-TM-HCN1CT reporter lacking the region containing peptide C (amino acids 850-880) (domain or fragment) (O88704 whole entry, the tested form may be a part): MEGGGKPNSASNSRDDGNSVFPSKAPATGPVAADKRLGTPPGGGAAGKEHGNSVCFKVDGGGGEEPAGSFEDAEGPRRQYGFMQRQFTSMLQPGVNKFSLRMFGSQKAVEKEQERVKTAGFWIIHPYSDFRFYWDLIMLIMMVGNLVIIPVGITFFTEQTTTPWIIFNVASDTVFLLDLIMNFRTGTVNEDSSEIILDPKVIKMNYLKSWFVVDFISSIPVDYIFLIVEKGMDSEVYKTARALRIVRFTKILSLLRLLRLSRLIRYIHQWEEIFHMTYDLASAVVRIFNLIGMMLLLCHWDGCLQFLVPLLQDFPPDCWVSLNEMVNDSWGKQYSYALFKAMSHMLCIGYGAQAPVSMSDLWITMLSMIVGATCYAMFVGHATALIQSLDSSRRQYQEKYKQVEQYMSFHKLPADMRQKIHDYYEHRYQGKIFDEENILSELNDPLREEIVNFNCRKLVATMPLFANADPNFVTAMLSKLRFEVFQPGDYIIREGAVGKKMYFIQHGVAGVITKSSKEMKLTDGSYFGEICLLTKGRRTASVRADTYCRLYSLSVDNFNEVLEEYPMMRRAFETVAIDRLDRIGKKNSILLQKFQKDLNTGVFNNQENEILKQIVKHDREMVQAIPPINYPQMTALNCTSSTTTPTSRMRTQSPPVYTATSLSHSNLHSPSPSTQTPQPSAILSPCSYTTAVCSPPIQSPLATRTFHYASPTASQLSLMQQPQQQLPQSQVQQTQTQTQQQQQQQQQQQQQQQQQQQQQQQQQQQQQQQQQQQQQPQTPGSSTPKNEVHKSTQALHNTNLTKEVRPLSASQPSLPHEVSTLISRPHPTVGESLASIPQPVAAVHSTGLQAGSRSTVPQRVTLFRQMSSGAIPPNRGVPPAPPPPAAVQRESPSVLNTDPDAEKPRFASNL
Chain of SNAP-TM-HCN1CT reporter also lacking the region containing peptide B (residues 790-820) (domain or fragment) (O88704 whole entry, the tested form may be a part): as above
Chain of SNAP-TM-HCN1CT reporter lacking the distal 30 amino acid block with the TRIP8b-tripeptide binding site (domain or fragment) (O88704 whole entry, the tested form may be a part): as above

| Molecule | amount pulled down relative to CT (598-910) [1] [fold] | Kd [2] [µM] | further results |
| --- | --- | --- | --- |
| SNAP-TM-HCN1CT reporter lacking the distal 30 amino acid block with the TRIP8b-tripeptide binding site (domain or fragment) | 1.18 |  |  |
| SNAP-TM-HCN1CT reporter lacking the region containing peptide C (amino acids 850-880) (domain or fragment) | 0.61 |  |  |
| SNAP-TM-HCN1CT reporter also lacking the region containing peptide B (residues 790-820) (domain or fragment) | 0.23 |  |  |
| VRPLSA[pS]QPSL [HCN1 phospho-peptide B] |  | 25 |  |
| TLFRQM[pS]SGAI [HCN1 phospho-peptide C] |  | 15 |  |
| SRMRTQ[pS]PPVY [HCN1 phospho-peptide A] |  | 16 |  |
| SNAP-TM-HCN1CT reporter CT_(731-910; Δ804-814; Δ861-871) (domain or fragment, mouse, UniProt O88704 731-910, looked up) VQQTQTQTQQQQQQQQQQQQQQQQQQQQQQQQQQQQQQQQQQQQQPQTPGSSTPKNEVHKSTQALHNTNLTKEPHEVSTLISRPHPTVGESLASIPQPVAAVHSTGLQAGSRSTVPQRVPPNRGVPPAPPPPAAVQRESPSVLNTDPDAEKPRFASNL |  |  | amount pulled down relative to CT_(731-910) [1]: 0.26 fold |
| SNAP-TM-HCN1CT reporter CT_(731-910) (domain or fragment, mouse, UniProt O88704 731-910, looked up) VQQTQTQTQQQQQQQQQQQQQQQQQQQQQQQQQQQQQQQQQQQQQPQTPGSSTPKNEVHKSTQALHNTNLTKEVRPLSASQPSLPHEVSTLISRPHPTVGESLASIPQPVAAVHSTGLQAGSRSTVPQRVTLFRQMSSGAIPPNRGVPPAPPPPAAVQRESPSVLNTDPDAEKPRFASNL |  |  | amount pulled down relative to CT_(598-910) [1]: 1.39 fold |
| SNAP-TM-HCN1CT reporter CT_(731-910; S810A; S867A) (domain or fragment, mouse, UniProt O88704 731-910, looked up) VQQTQTQTQQQQQQQQQQQQQQQQQQQQQQQQQQQQQQQQQQQQQPQTPGSSTPKNEVHKSTQALHNTNLTKEVRPLSAAQPSLPHEVSTLISRPHPTVGESLASIPQPVAAVHSTGLQAGSRSTVPQRVTLFRQMASGAIPPNRGVPPAPPPPAAVQRESPSVLNTDPDAEKPRFASNL |  |  | amount pulled down relative to CT_(731-910) [1]: 0.33 fold |
| SNAP-TM-HCN1CT reporter truncated of residues 803-910 (domain or fragment, mouse, UniProt O88704 598-802, looked up) LNTGVFNNQENEILKQIVKHDREMVQAIPPINYPQMTALNCTSSTTTPTSRMRTQSPPVYTATSLSHSNLHSPSPSTQTPQPSAILSPCSYTTAVCSPPIQSPLATRTFHYASPTASQLSLMQQPQQQLPQSQVQQTQTQTQQQQQQQQQQQQQQQQQQQQQQQQQQQQQQQQQQQQQPQTPGSSTPKNEVHKSTQALHNTNLTK |  |  | amount pulled down relative to CT_(598-910) [1]: 0.2 fold |

— paper doi:10.1101/2021.08.19.457009 (bioRxiv, 2021)
